Substrate in this data set: [N-]=[N+]=NCCCCCCCC(=O)O
The data set can be described thus: Measurement of LplA-probe ligation kinetics (HPLC). It counts as biochemical, E. coli. The settings on record: other: ligation to E2p, 200 nM LplA; pH 7.0; 30.0 °C. As for the experimental part: To measure the kcat for LplA ligation of lipoic acid to E2p, 50 nM LplA was combined with 200 μM E2p, 750 μM lipoic acid, […], and 2 mM magnesium acetate in 25 mM sodium phosphate pH 7.0. The reaction was initiated with addition of 1 mM ATP to the pre-warmed (30° C.) mixture. The reaction was incubated at 30° C., and 90 μL aliquots were removed every 5 minutes and quenched with 50 mM EDTA (final concentration). Samples were analyzed by C18 reverse-phase HPLC as described in the “Methods” section. Measurements were performed in triplicate. A calibration curve was obtained that correlated the ratio of integrated HPLC peak areas (E2p:E2p-probe) to the actual protein ratio, in order to compensate for differences in the extinction coefficients of E2p and lipoylated E2p. The amount of product obtained at each time point was plotted against time, to obtain the Vmax of the reaction. From this, the kcat value was obtained using the equation Vmax=kcat [E]total.
90 μL aliquots were removed from the 30° C. reactions at 5 minutes intervals, up to 30 minutes, and quenched with 50 mM EDTA (final concentration). Samples were analyzed by HPLC as above. The amount of product obtained at each time point was plotted against time, to obtain the initial velocity for each concentration of azide 7. […] From the Vmax value, kcat was calculated using the equation Vmax=kcat [E]total.

B1: E. coli LplA (Escherichia coli K-12) (protein)
chain: STLRLLISDSYDPWFNLAVEECIFRQMPATQRVLFLWRNADTVVIGRAQNPWKECNTRRMEEDNVRLARRSSGGGAVFHDLGNTCFTFMAGKPEYDKTISTSIVLNALNALGVSAEASGRNDLVVKTVEGDRKVSGSAYRETKDRGFHHGTLLLNADLSRLANYLNPDKKKLAAKGITSVRSRVTNLTELLPGITHEQVCEAITEAFFAHYGERVEAEIISPNKTPDLPNFAETFARQSSWEWNFGQAPAFSHLLDERFTWGGVELHFDVEKGHITRAQVFTDSLNPAPLEALAGRLQGCLYRADMLQQECEALLVDFPEQEKELRELSAWMAGAVR
As a reminder, the Km is the substrate concentration at which the rate is half of its maximum. As for B1, the Michaelis-Menten constant (Km) turned out to be 127 ± 11 µM.
